The results in this text go back to paper doi:10.1101/2021.12.26.474192 (bioRxiv, 2021).

Test [1] addresses T1, SARS-CoV-2 spike HexaPro (S) (SARS-CoV-2, Wuhan-Hu-1, UniProt P0DTC2, stabilised). Kind of test: ELISA.
Test [2] addresses T1, SARS-CoV-2 spike HexaPro (S). Kind of test: cryo-EM structure.

B1: psNb 1-21 (VHH)
VHH: HVQLVESGGGLVQAGGSLRLSCAAPGRTFSTSAMGWFRQAPGKEREFVAAIDWSNTNIHYADTVKGRFTISTDTAKNTVYLQMNNLKPEDTAVYYCAQGGWGLTQPISVDYWGKGTQVTVSS
As to B1, in test [1], the binding result is “binds”.

B2: psNb 2-31 (VHH)
VHH: QVQLVESGGGLVQAGESLRLSCAASKPTFRNFAAGWFRQTPGKDREFVAVIEYDGDSAYYADSVKGRFTISRDNAKNTVYLQMNRLKPGDTAVYICAIGGNHYDPSKYYTADEYDYWGQGTQVTVSS
For B2, the binding result in test [1] is “binds”.

B3: psNb 2-38 (VHH)
VHH: QVQLVESGGGLVQAGGSLRLSCAAAARFSTSAMGWFRQAPGKEREFVAAISWSNTNTHYADTVKGRFTISADTAKETVDLQMNSLKPEDTAVYYCVQGGWGIRQPIIVDYWGKGTQVTVSS
In the case of B3, the binding result in test [2] was “binds”.

B4: psNb 1-23 (VHH)
VHH: QVQLVESGGGLVQAGGSLRLSCAASGRTDSISDMGWFRQAPGKEREFVAVVGWSGGGTDYAHSVKGRFTISRDNAKNTVYLQMNSLKPEDTAVYYCAVGSLRVGSFSVEYWGQGTQVTVSS
As for B4, in test [2], the binding result was “binds”.

B5: psNb 2-34 (VHH)
VHH: HVQLVESGGGLVQAGGSLRLSCAASGRTFSRYAAGWFRQAPGKEREFVAVIEWDGDSAYYADPVKGRFTISRDNAKNTVYLQMNRLKPEDTAVYICAVGGNHYSRSKYYNLDEYDDWGQGTQVTVSS
In the case of B5, the binding result in test [2] is listed as “binds”.

B6: psNb 2-65 (VHH)
VHH: HVQLVESGGGLVQAGGSLRLSCAASGTISTLNAMGWYRQAPGKQRELLASISNLGTTYHADSVAGRFTISRGSAKNTVNLQMNSLKPDDTAVYYCNTRVLEGGTQIRDYWGQGTQVTVSS
For B6, in test [2], the binding result is reported as “binds”.

B7: psNb 2-45 (VHH)
VHH: QVQLVESGGGLVQAGGSLRLSCTASGYDFSILAIAWYRQAPGKERELVAAISRVGSTDYADSVKGRFTISRDNTKNTVSLQMDSLKPEDTAVYYCNAGIPMTTVLSGLGFWGQGTQVTVSS
Turning to B7, the binding result in test [2] is listed as “binds”.

B8: psNb 1-22 (VHH)
VHH: HVQLVESGGGLVQPGGSLRLSCAASGRSFNSYLMGWFRQAPGKEREFVAWISGSPHDIIRYRDSVKDRFTISRDNAKNTVYLQMNSLKPVDTAVYYCAVGSLRVGSFSPDYWGQGTQVTVSS
As to B8, the binding result in test [2] is given as “binds”.

B9: psNb 2-67 (VHH)
VHH: EVQLVESGGGLVQTGGSLRLSCALSGYTFSIFPTAWFRQAPGKEREFVAGIRWNGSTRDYTEYADFVKGRFTISRDNAKNMVYLQMISLKPEDTALYYCAASDGVIDGTNANAYRYWGQGTQVTVSS
B9: in test [1], the binding result is “binds”.

B10: psNb 2-57 (VHH)
VHH: QVQLVESGGGLVQAGGSLRLSCAVSGRTISTFGMGWFRQAPGKEREFVATITRDEDMLLYADSVKGRFTISRDTAKNMVFLQMNSLKIEDTALYYCAVRRDSSWGYSRQSTEYDYWGQGTQVTVSS
Take B10: the binding result in test [2] is on record as “binds”.

B11: psNb 1-25 (VHH)
VHH: HVQLVESGGGLVQAGGSLRLSCATSGRTFSTYRMSWFRQAPGKEREFVATIIWSVGSTHYADSVKGRFTISRDNAKNMVYLQMNSLKPEDTAVYYCAAQRSDSSSWGYEDDYDYWGQGTQVTVSS
Consider B11, for which the binding result in test [1] is “binds”.
